Source: the RNAGym collection of RNA variant scans (doi:10.1093/nar/gkz1192)

B1: CPEB3 Ribozyme (parent)
chain: UAACAGGGGGCCACAGCAGAAGCGUUCACGUCGCAGCCCCUGUCAGAUUCUGGUGAAUCUGCGAAUUCUGCUGUAUAUCUC

Variants of: B1
Experiment: self-cleavage, relative activity (ratio to wild type); higher = more cleavage; in vitro, sequencing
Outline: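 Relative activity compares each variant's cleaved/total read fraction with that of the unmutated ribozyme. To get these fractions, barcoded CPEB3 ribozyme libraries from rounds of error-prone PCR were transcribed with T7 RNA polymerase for 5 hours at 37°C and then given 15 min of DNase I treatment before EDTA was added. The RNAs were reverse transcribed with template switching and sequenced on Illumina, and DNA sequencing linked barcodes to variants. A minimum of 5 reads applied, and three batches were averaged.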

Variant | self-cleavage
UAACAGGGGGCUACAGCAGAAGCGUUCAUGUCGCAGCCCCUGUCAGAUUCUGGUGAAUCUGCGAAUUCUGCUGUAUAUCUC [C12U C29U] | 0.96
UAACAGGGGGCUACAGCAGAAGCGUUCACGUCGCAGCCCCUGUCAGAUUCUGGUGGAUCUGCGAAUUCUGCUGUAUAUCUC [C12U A56G] | 1.13
UAACAGGGGGCUACAGCAGAAGCGUUCACGUCGCAGCCCCUGUCAGAUUCUGGUGAAUCUGCGAAUUCUGCUGUAUAUAUC [C12U C79A] | 1.19
UAACAGGGGGCUACAGCAGAAGCGUUCACGUCGCAGCCCCUGUCAGAUUCUGGUGAAUCUGCGAGUUCUGCUGUAUAUCUC [C12U A65G] | 1.07
UAACAGGGGGCUACAGCAGAAGCGUUCACGUCGCAGCCCCUGUCAGAUUCUGGUGAAUCUGCGAUUUCUGCUGUAUAUCUC [C12U A65U] | 0.42
UAACAGGGGGCUACAGCAGAAGCGUUCACGUCGCAGCCCUUGUCAGAUUCUGGUGAAUCUGCGAAUUCUGCUGUAUAUCUC [C12U C40U] | 1.12
UAACAGGGGGCUACAGCAGAAGCGUUCACGUCGAAGCCCCUGUCAGAUUCUGGUGAAUCUGCGAAUUCUGCUGUAUAUCUC [C12U C34A] | 0.68
UAACAGGGGGCUACAGCAGAAGCGUUCUCGUCGCAGCCCCUGUCAGAUUCUGGUGAAUCUGCGAAUUCUGCUGUAUAUCUC [C12U A28U] | 1.12
UAACAGGGGGCUACAGCAGAAGCGUUCACGUCGCCGCCCCUGUCAGAUUCUGGUGAAUCUGCGAAUUCUGCUGUAUAUCUC [C12U A35C] | 0.85
UAACAGGGGGCUACAGCAGAAGCGUUCACGUCGCUGCCCCUGUCAGAUUCUGGUGAAUCUGCGAAUUCUGCUGUAUAUCUC [C12U A35U] | 1.06
UAACAGGGGGCUACAGCAGAAGCGUUCACGUCGCGGCCCCUGUCAGAUUCUGGUGAAUCUGCGAAUUCUGCUGUAUAUCUC [C12U A35G] | 1.15
UAACAGGGGGCUACAGCAGAAGCGUUCACGUCGCAGCCCCUGUAAGAUUCUGGUGAAUCUGCGAAUUCUGCUGUAUAUCUC [C12U C44A] | 0.94
UAACAGGGGGCUACAGCAGAAGCGUUCACGUCGCAGCCCCUGUCAGAUUCUGGUGAAUCUGCGAAUUCUGCUGUGUAUCUC [C12U A75G] | 1.3
UAACAGGGGGCUACAGCAGAAGCGUUCACGUCGCAGCCCCUGUCAGAUUCUGGUGAAUCUGCGAAUUCUGCUGUUUAUCUC [C12U A75U] | 1.28
UAACAGGGGGCUACAGCAGAAGCGUUCACGUCGCAGCCCCUGUCCGAUUCUGGUGAAUCUGCGAAUUCUGCUGUAUAUCUC [C12U A45C] | 0.64
UAACAGGGGGCUACAGCAGAAGCGUUCACGUCGCAGCCCCUGUCGGAUUCUGGUGAAUCUGCGAAUUCUGCUGUAUAUCUC [C12U A45G] | 1.25
UAACAGGGGGCUACAGCAGAAGCGUUCACGUCGCAGCCCCUGUCUGAUUCUGGUGAAUCUGCGAAUUCUGCUGUAUAUCUC [C12U A45U] | 0.83

Variant | self-cleavage
UAACAGGGGGCUACAGCAGAAGCGUUCACGUCGCAGCCCCUGUCAGAUUCUGGUGAGUCUGCGAAUUCUGCUGUAUAUCUC [C12U A57G] | 1.26
UAACAGGGGGCUAUAGCAGAAGCGUUCACGUCGCAGCCCCUGUCAGAUUCUGGUGAAUCUGCGAAUUCUGCUGUAUAUCUC [C12U C14U] | 1.25
UAACAGGGGGCUACAGCAGAAGCGUUCACGUCGCAGCCCCUGUCAGAUUCUGGUGAAUCUGCGAAUUCUGUUGUAUAUCUC [C12U C71U] | 0.58
UAACAGGGGGCUACAGCAGAAGCGUUCACGUCGCAGCCCCUGUCAGAUUCUGGUGAAUCUGCGAAUUCUGCUGUAUAUCUU [C12U C81U] | 1.22
UAACAGGGGGCUACAGCAGAAGCGUUCACGUCGCAGCCCCUGUCAGAUUCUGGUGAAUCUGCGGAUUCUGCUGUAUAUCUC [C12U A64G] | 1.41
UAACAGGGGGCUACAGCAGAAGCGUUCACGUCGCAGCCCCUGUCAGAUUCUGGUGAAUCUGCGUAUUCUGCUGUAUAUCUC [C12U A64U] | 0.83
UAACAGGGGGCUACAGCAGAAGCGUUCACGUCGCAGCCUCUGUCAGAUUCUGGUGAAUCUGCGAAUUCUGCUGUAUAUCUC [C12U C39U] | 1.26
UAACAGGGGGCUACAGCAGAAGCGUUCACGUCGCAGCCCCUGUCAGAUUCUGGUGAAUCUGCGAAUUCUGCUGUAUGUCUC [C12U A77G] | 1.19
UAACAGGGGGCUACAGCAGAAGCGUUCACGUCGCAGCCCCUGUCAGAUUCUGGUGAAUCUGCGAAUUCUGCUGUAUCUCUC [C12U A77C] | 1.03
UAACAGGGGGCUACAGCAGAAGCGUUAACGUCGCAGCCCCUGUCAGAUUCUGGUGAAUCUGCGAAUUCUGCUGUAUAUCUC [C12U C27A] | 0.46
UAACAGGGGGCUACAGUAGAAGCGUUCACGUCGCAGCCCCUGUCAGAUUCUGGUGAAUCUGCGAAUUCUGCUGUAUAUCUC [C12U C17U] | 1.13
UAACAGGGGGCUACAGCAGAAGCGUUCACGUCGCAGCCCCUGUCAGGUUCUGGUGAAUCUGCGAAUUCUGCUGUAUAUCUC [C12U A47G] | 1.17
UAACAGGGGGCUACAGCAGAAGCGUUCACGUCGCAGCCCCUGUCAGUUUCUGGUGAAUCUGCGAAUUCUGCUGUAUAUCUC [C12U A47U] | 0.83
UAACAGGGGGCUACAGCAGAAGCGUUCACGUCGCAGCCCCUGUCAGCUUCUGGUGAAUCUGCGAAUUCUGCUGUAUAUCUC [C12U A47C] | 0.76
UAACAGGGGGCUACAGCAGAAGUGUUCACGUCGCAGCCCCUGUCAGAUUCUGGUGAAUCUGCGAAUUCUGCUGUAUAUCUC [C12U C23U] | 0.52
UAACAGGGGGCUACAUCAGAAGCGUUCACGUCGCAGCCCCUGUCAGAUUCUGGUGAAUCUGCGAAUUCUGCUGUAUAUCUC [C12U G16U] | 0.75
UAACAGGGGGCUACACCAGAAGCGUUCACGUCGCAGCCCCUGUCAGAUUCUGGUGAAUCUGCGAAUUCUGCUGUAUAUCUC [C12U G16C] | 0.79
